± gives the standard error. For part of these data: This sample holds only a part of the variants without activity.
B1: glmS ribozyme (parent)
chain: AUAAAAGCGCCAGAACUACAGAAAUGUAGUUGACGAGGAGGAGGUUUAUCGAAUUUUCGGCGGAUGCCUCCAAA

Experiments:
Conditions in all cases: with glucosamine-6-phosphate
glucosamine-6-phosphate [1] = variants of: B1; assay: KM; higher = weaker cofactor use; RNA array
Procedure, shortened: (§1)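 A hybridised Cy3 probe tracked barcoded ribozyme variants, transcribed in situ by E. coli RNA polymerase on sequenced MiSeq chips, at 37 °C. The variants received 40 μM to 10 mM glucosamine-6-phosphate in HEPES/KCl/Mg(OAc)2 buffer. kobs came from decay fits and kcat and KM from weighted Michaelis–Menten fits.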

glucosamine-6-phosphate [2] = variants of: B1; assay: self-cleavage kobs at 40 uM GlcN6P; higher = faster cleavage; RNA array
Procedure, shortened: as §1

glucosamine-6-phosphate [3] = variants of: B1; assay: self-cleavage kobs at 160 uM GlcN6P; higher = faster cleavage; RNA array
Procedure, shortened: as §1

glucosamine-6-phosphate [4] = variants of: B1; assay: self-cleavage kobs at 640 uM GlcN6P; higher = faster cleavage; RNA array
Procedure, shortened: as §1

glucosamine-6-phosphate [5] = variants of: B1; assay: self-cleavage kobs at 2500 uM GlcN6P; higher = faster cleavage; RNA array
Procedure, shortened: as §1

glucosamine-6-phosphate [6] = variants of: B1; assay: self-cleavage kobs at 10000 uM GlcN6P; higher = faster cleavage; RNA array
Procedure, shortened: as §1

| Variant | KM (glucosamine-6-phosphate [1]) [µM] | self-cleavage kobs at 40 uM GlcN6P (glucosamine-6-phosphate [2]) [s⁻¹] | self-cleavage kobs at 160 uM GlcN6P (glucosamine-6-phosphate [3]) [s⁻¹] | self-cleavage kobs at 640 uM GlcN6P (glucosamine-6-phosphate [4]) [s⁻¹] | self-cleavage kobs at 2500 uM GlcN6P (glucosamine-6-phosphate [5]) [s⁻¹] | self-cleavage kobs at 10000 uM GlcN6P (glucosamine-6-phosphate [6]) [s⁻¹] |
| --- | --- | --- | --- | --- | --- | --- |
| G37A G63A | 278 ± 110 |  |  |  |  |  |
| U31G G51C | 210 ± 61 |  |  |  |  |  |
| A42G U55C | 895 ± 430 | 0.000832 ± 0.00014 | 0.00147 ± 0.00063 | 0.0147 ± 0.0051 | 0.0354 ± 0.016 | 0.0147 ± 0.0029 |
| C11U C50U | 98.2 ± 43 |  |  |  |  |  |
| G13A C61G | 127 ± 17 |  |  |  |  |  |
| A36C C61U | 44.5 ± 18 |  |  |  |  |  |
| A39G U55G | 212 ± 100 | 0.0012 ± 0.00016 | 0.00211 ± 0.0006 | 0.00499 ± 0.00097 | 0.00613 ± 0.0016 | 0.0177 ± 0.0048 |
| C10U C50G | 51.5 ± 26 | 6.14e-05 ± 1e-05 | 9.85e-05 ± 1.3e-05 | 0.000136 ± 1.7e-05 | 0.00051 ± 0.0002 | 0.000116 ± 3e-05 |
| C34U A42U | 70.4 ± 29 |  |  |  |  |  |
| A42C U56G | 4130 ± 120 |  |  |  |  |  |
| A39C C50U | 1080 ± 200 |  |  |  |  |  |
| G59A G60C | 30.9 ± 14 |  |  |  |  |  |
| G41C U69C | 84.1 ± 23 |  |  |  |  |  |
| G40A G44C | 2680 ± 1100 |  |  |  |  |  |
| A42G A53G | 248 ± 95 | 0.00144 ± 0.00031 | 0.00422 ± 0.0013 | 0.00893 ± 0.0025 | 0.0414 ± 0.018 | 0.00932 ± 0.0024 |
| G44C C50A | 105 ± 18 |  |  |  |  |  |
| G13U G35C |  | < 1e-05 | < 1e-05 | < 1e-05 | < 1e-05 | < 1e-05 |
| G32C U47G U55G U65C U69G |  | 0.000245 ± 8.5e-05 |  |  |  | 0.000357 ± 9.5e-05 |
| G37U G43C |  | < 1e-05 | < 1e-05 |  | < 1e-05 | < 1e-05 |

| Variant | KM (glucosamine-6-phosphate [1]) [µM] | self-cleavage kobs at 40 uM GlcN6P (glucosamine-6-phosphate [2]) [s⁻¹] | self-cleavage kobs at 160 uM GlcN6P (glucosamine-6-phosphate [3]) [s⁻¹] | self-cleavage kobs at 640 uM GlcN6P (glucosamine-6-phosphate [4]) [s⁻¹] | self-cleavage kobs at 2500 uM GlcN6P (glucosamine-6-phosphate [5]) [s⁻¹] | self-cleavage kobs at 10000 uM GlcN6P (glucosamine-6-phosphate [6]) [s⁻¹] |
| --- | --- | --- | --- | --- | --- | --- |
| U31A U55C G63C C67G |  | < 1e-05 |  |  | < 1e-05 | < 1e-05 |
| A39G U65G C67G |  | 0.000107 ± 2.4e-05 |  |  |  | 0.00497 ± 0.0012 |
| A64C C68G C70G |  | < 1e-05 |  | < 1e-05 | < 1e-05 |  |
| C58U G60U |  | < 1e-05 |  | < 1e-05 | < 1e-05 | < 1e-05 |
| A14C C61G |  | < 1e-05 |  |  |  | < 1e-05 |
| G35A A64G C70G |  | < 1e-05 |  |  |  | < 1e-05 |
| A6G U30G U54A C67G |  | < 1e-05 |  |  |  | < 1e-05 |
| C8A U45G U69C C71G |  | < 1e-05 |  |  |  |  |
| A6C C11G G29U C34G G51C |  | < 1e-05 |  |  |  |  |
| G9C A42G |  | < 1e-05 | < 1e-05 |  | < 1e-05 | < 1e-05 |
| G41A U49G C67U C71U |  | < 1e-05 |  |  |  | < 1e-05 |
| A15U G43A G44U G62A |  | < 1e-05 |  |  |  | < 1e-05 |
| G41C U49A |  | < 1e-05 | < 1e-05 | < 1e-05 | < 1e-05 |  |
| C10G A33G A52U C58U A64U |  | < 1e-05 |  |  |  |  |
| U47G U56G C61U C67G C70U |  | 0.000123 ± 6.1e-05 |  | 0.000281 ± 8.9e-05 |  | 4.99e-05 ± 1.9e-05 |
| A6G U57A |  | < 1e-05 | < 1e-05 | < 1e-05 |  |  |
| U30A C50G |  | 3.17e-05 ± 1.5e-05 | 6.28e-05 ± 1.6e-05 | 0.00128 ± 0.0005 | 6.93e-05 ± 1.6e-05 |  |
| A14G G40A A53U |  | 0.000596 ± 0.00013 |  |  |  | 0.0182 ± 0.004 |
| C11U A15G C50G |  | 5.89e-05 ± 2.4e-05 |  |  |  |  |

| Variant | KM (glucosamine-6-phosphate [1]) [µM] | self-cleavage kobs at 40 uM GlcN6P (glucosamine-6-phosphate [2]) [s⁻¹] | self-cleavage kobs at 160 uM GlcN6P (glucosamine-6-phosphate [3]) [s⁻¹] | self-cleavage kobs at 640 uM GlcN6P (glucosamine-6-phosphate [4]) [s⁻¹] | self-cleavage kobs at 2500 uM GlcN6P (glucosamine-6-phosphate [5]) [s⁻¹] | self-cleavage kobs at 10000 uM GlcN6P (glucosamine-6-phosphate [6]) [s⁻¹] |
| --- | --- | --- | --- | --- | --- | --- |
| G41C C67U |  | < 1e-05 | < 1e-05 | < 1e-05 | < 1e-05 | < 1e-05 |
| U30C U45G |  | < 1e-05 | < 1e-05 |  |  |  |
| C34A G41U G62A |  | < 1e-05 |  |  |  | < 1e-05 |
| A6U G35C C61U |  | < 1e-05 |  |  |  |  |
| A42G U49G C50U U55G G60A |  | < 1e-05 |  |  |  | < 1e-05 |
| A6G C58G C61U |  | < 1e-05 |  |  |  | < 1e-05 |
| A15G G38U U47A C68G |  | 9.09e-05 ± 3.3e-05 |  |  |  |  |
| G26A A39U G40C |  | 5.34e-05 ± 1.4e-05 |  | 0.000262 ± 8.2e-05 | 0.000935 ± 0.00028 |  |
| G29U A42U |  | < 1e-05 |  | < 1e-05 |  | 2.15e-05 ± 1.1e-05 |
| A15G A52G G63U |  | < 1e-05 |  |  |  | < 1e-05 |
| A33C C58A |  | < 1e-05 |  | < 1e-05 |  |  |
| A15G G35C C68A |  | < 1e-05 |  |  |  |  |
| G13A G62U C70U |  | < 1e-05 |  |  |  | < 1e-05 |
| G44A U65G |  | < 1e-05 | < 1e-05 |  |  |  |
| G7C A12U G38U G40C U49G U56G |  | < 1e-05 |  |  |  |  |
| G44A G51A C67U |  | < 1e-05 |  |  |  |  |
| A6U G7U C16G C34A |  | < 1e-05 |  |  |  | < 1e-05 |
| A42C A53G |  | < 1e-05 | < 1e-05 |  |  |  |

From the supplement of paper PMC7125110
